Among the data in publication PMC3793935 are Km of hydrolysis of the fluorescence-quenched peptide substrate by wild type SplD values, retold here.

This assay has as its target T1, GS-SplD, recombinant SplD protease containing the Gly-Ser dipeptide at the N-terminus (Staphylococcus aureus strain 8325-4) (UniProt Q2FXC5).
T1 sequence: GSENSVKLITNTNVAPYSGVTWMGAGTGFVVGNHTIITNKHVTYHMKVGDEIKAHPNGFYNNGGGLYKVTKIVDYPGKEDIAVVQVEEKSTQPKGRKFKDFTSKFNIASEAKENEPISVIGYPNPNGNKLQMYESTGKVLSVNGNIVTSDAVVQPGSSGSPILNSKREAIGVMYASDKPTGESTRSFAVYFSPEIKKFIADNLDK

The star is where a group is joined. NH(3-CONH2-4-NO2-Ph) = NC(=O)c1cc(N*)ccc1[N+](=O)[O-]

For {ABZ}-WLVS-{NH(3-CONH2-4-NO2-Ph)-NH2} [ABZ-Trp-Leu-Val-Ser-ANB-NH2], the Km of hydrolysis of the fluorescence-quenched peptide substrate by wild type SplD turned out to be 31.1 µM.

On to {ABZ}-WLTS-{NH(3-CONH2-4-NO2-Ph)-NH2} [ABZ-Trp-Leu-Thr-Ser-ANB-NH2], for which the Km of hydrolysis of the fluorescence-quenched peptide substrate by wild type SplD amounted to 14.7 µM.
